Results on one protein are retold here after paper PMC2603668, “Rhabdovirus Matrix Protein Structures Reveal a Novel Mode of Self-Association” (PLoS Pathogens, 2008).

This series deals with the molecule itself. The experiment in a line: crystal structure.

B1: matrix (M) protein from Lagos bat virus (natural protein)
chain: MNFLRKIVKNCKDEEIPKPGTPSAPPDDDDLWMPPPEYVPLTQIKGKENVRNFCINGEIKICSPNGYSFRILRHILKSFDNVYSGNRRLIGVVKVVIGLVLSASPVPEGMNWVYKLRRTLIFQWAESHGPLEGEELEYSQEITWDDEAEFVSLQIRVSAKQCHIQGRLWCINMNSKACQLWADMGLKTQQSQEDENTSLLLE
notes: also called LBV M; full-length LBV M
In the case of B1, the binding result is listed as “binds”.
